Assay [1] concerns the target T1, hIL-1β (Homo sapiens, UniProt P01584). In words: Surface plasmon resonance (Biacore) binding kinetics and affinity to hIL-1β. The conditions noted are these: for koff / kon / Kd / Stoichiometry: antigen hIL-1β; for Kd: KD=koff/kon; for Stoichiometry: saturating binding conditions. As for the experimental part:
(§1) The kinetics of DVD-Ig molecules binding to rhIL1-α and rhIL1-β was determined by surface plasmon resonance-based measurements with a Biacore 3000 instrument (Biacore AB, Uppsala, Sweden) using HBS-EP (10 mM HEPES, pH 7.4, 150 mM NaCl, 3 mM EDTA, and 0.005% surfactant P20) at 25° C. All chemicals were obtained from Biacore AB (Uppsala, Sweden) or otherwise from a different source as described herein. Approximately, 5000 RU of goat anti-human IgG Fcγ fragment specific polyclonal antibody (Pierce Biotechnology Inc, Rockford, Ill.) diluted in 10 mM sodium acetate (pH 4.5) was directly immobilized across a CM5 research grade biosensor chip using a standard amine coupling kit according to manufacturer's instructions and procedures at […]. Unreacted moieties on the biosensor surface were blocked with ethanolamine. Modified carboxymethyl dextran surface in flowcell 2 and 4 was used as a reaction surface. Unmodified carboxymethyl dextran without goat anti-human IgG in flow cell 1 and 3 was used as the reference surface. For kinetic analysis, rate equations derived from the 1:1 Langmuir binding model were fitted simultaneously to association and dissociation phases of all ten injections (using global fit analysis) using the Bioevaluation 4.0.1 software. Purified DVD-Ig samples were diluted in HEPES-buffered saline for capture across goat anti-human IgG Fc specific reaction surfaces and injected over reaction matrices at a flow rate of […]. The association and dissociation rate constants, kon (M-1s-1) and koff (s-1) were determined under a continuous flow rate of […]. Rate constants were derived by making kinetic binding measurements at ten different antigen concentrations ranging from 1.25 to 1000 nM. The equilibrium dissociation constant (M) of the reaction between DVD-Ig molecule and rhIL1α/β was then calculated from the kinetic rate constants by the following formula: KD=koff/kon. Aliquots of rhIL1α/β samples were also simultaneously injected over a blank reference and reaction CM surface to record and subtract any nonspecific binding background to eliminate the majority of the refractive index change and injection noise. Surfaces were regenerated with two subsequent […] injections of 10 mM Glycine (pH 1.5) at a flow rate of […]. The anti-Fc antibody immobilized surfaces were completely regenerated and retained their full capture capacity over twelve cycles. The apparent stoichiometry of the captured DVD-Ig-rhIL1α/β complex was calculated under saturating binding conditions (steady-state equilibrium) using the following formula: […]
In general terms: In SPR one partner is held on a chip, and binding of the other changes the refractive index at the surface.

Assay [2] addresses T2, hIL-1α (Homo sapiens, UniProt P01583).
T2 sequence (P01583 113-271): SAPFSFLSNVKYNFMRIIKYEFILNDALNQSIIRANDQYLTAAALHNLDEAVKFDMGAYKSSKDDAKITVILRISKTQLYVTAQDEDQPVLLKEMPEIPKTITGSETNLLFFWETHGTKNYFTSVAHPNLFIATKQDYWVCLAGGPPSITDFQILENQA
In words: Surface plasmon resonance (Biacore) binding kinetics and affinity to hIL-1α. Conditions: antigen hIL-1α; for Kd: KD=koff/kon. As to the method: as §1

The target of assay [3] is T1, hIL-1β. In words: MRC-5 bioassay: neutralization of hIL-1β-induced IL-8 production. Format: cell-based. As for the experimental part: (§2) The MRC-5 cell line is a human lung fibroblast cell line that produces IL-8 in response to human IL-1α and IL-1β in a dose-dependent manner (see, Dinarello, Muegge, and Durum (2000) Curr. Protocols Immunol. 6:1). MRC-5 cells were cultured in 10% FBS complete MEM and grown at 37° C. in a 5% CO2 incubator. […] The supernatants were harvested, diluted, and IL-8 concentrations measured by ELISA using a standard IL-8 ELISA kit (R&D Systems). Antibody potency was determined by its ability to inhibit IL-8 production by MRC-5 cells.
The biological activity of DVD-Ig was measured using MRC-5 bioassay. The MRC-5 cell line is a human lung fibroblast cell line that produces IL-8 in response to human IL-1α and IL-1β in a dose-dependent manner. MRC-5 cells were obtained from ATCC and cultured in 10% FBS complete MEM at 37° C. in a 5% CO2 incubator. To determine neutralizing activity of the DVD-Ig against human IL-1α or IL-1β, 50 μl of antibody (1×10^−7 to 1×10^−12 M) in MEM/10% FBS was added to a 96 well plate and pre-incubated with 50 μl of hIL-1α or hIL-1β (200 pg/ml) for 1 hour at 37° C., 5% CO2. […] The supernatants were harvested and human IL-8 production measured by standard ELISA (R&D Systems, Minneapolis, Minn.). Neutralizing activity of the DVD-Ig binding protein was determined by its ability to inhibit IL-8 production.

In assay [4] the target is T1, hIL-1β. In words: Tetravalent dual-specific antigen binding by Biacore (sequential antigen injection), hIL-1β. The conditions noted are these: for Response Unit, 1st antigen hIL-1β: hIL-1β injected as 1st antigen on captured DVD-Ig; for Response Unit, 2nd antigen hIL-1β: hIL-1β injected as 2nd antigen after hIL-1α. As to the method:
as §1
(§3) In addition, tetravalent dual-specific antigen binding of DVD-Ig binding protein was also analyzed by Biacore (Table 14). DVD-Ig binding protein was first captured via a goat anti-human Fc antibody on the Biacore sensor chip, and the first antigen was injected and a binding signal observed. As the DVD-Ig binding protein was saturated by the first antigen, the second antigen was then injected and the second signal observed. This was done either by first injecting IL-1β then IL-1α or by first injecting IL-1α followed by IL-1β for DVD2-Ig binding protein. In either sequence, a dual-binding activity was detected. Similar results were obtained for DVD1-Ig binding protein. Thus, each DVD-Ig binding protein was able to bind both antigens simultaneously as a dual-specific tetravalent molecule. […] Upon the injection of the second antigen, while DVD-Ig binding protein was already occupied by the first antigen, the stoichiometry of both DVD-Igs binding protein to the second antigen (i.e., hIL-1α or hIL-1β was between 1.0 and 1.3. Thus, DVD-Ig binding protein was able to bind two IL-1α and two IL-β molecules. DVD-Ig binding protein was first captured via a goat anti-human Fc antibody on the Biacore sensor chip, and the first antigen was injected and a binding signal observed, followed by the injection of the second antigen.

The target in assay [5] is T2, hIL-1α. The assay can be described thus: Tetravalent dual-specific antigen binding by Biacore (sequential antigen injection), hIL-1α. Conditions: for Response Unit, 1st antigen hIL-1α: hIL-1α injected as 1st antigen on captured DVD-Ig; for Response Unit, 2nd antigen hIL-1α: hIL-1α injected as 2nd antigen after hIL-1β. As for the experimental part: as §1, §3
Assay [6] addresses T2, hIL-1α. In words: MRC-5 bioassay: neutralization of hIL-1α-induced IL-8 production. Format: cell-based. The conditions noted are these: for IC50: antigen hIL-1α, read-out: Potency IC50. As for the experimental part:
as §2
The biological activity of DVD-Ig was measured using MRC-5 bioassay. The MRC-5 cell line is a human lung fibroblast cell line that produces IL-8 in response to human IL-1α and IL-1β in a dose-dependent manner. MRC-5 cells were obtained from ATCC and cultured in 10% FBS complete MEM at 37° C. in a 5% CO2 incubator. To determine neutralizing activity of the DVD-Ig against human IL-1α or IL-1β, 50 μl of antibody (1×10^−7 to 1×10^−12 M) in MEM/10% FBS was added to a 96 well plate and pre-incubated with 50 μl of hIL-1α or hIL-1β (200 pg/ml) for 1 hour at 37° C., 5% CO2. MRC-5 cells at a concentration of 1×10^5/ml were then added (100 μl) to all wells, and the plates were incubated overnight at 37° C. in a 5% CO2 incubator. The supernatants were harvested and human IL-8 production measured by standard ELISA (R&D Systems, Minneapolis, Minn.). Neutralizing activity of the DVD-Ig binding protein was determined by its ability to inhibit IL-8 production.

The mark [7] stands for this setting: hIL-1β injected as 2nd antigen, DVD-Ig already saturated with hIL-1α.
Where [8] appears, read: hIL-1α injected as 2nd antigen, DVD-Ig already saturated with hIL-1β.

T1 sequence (P01584 117-269): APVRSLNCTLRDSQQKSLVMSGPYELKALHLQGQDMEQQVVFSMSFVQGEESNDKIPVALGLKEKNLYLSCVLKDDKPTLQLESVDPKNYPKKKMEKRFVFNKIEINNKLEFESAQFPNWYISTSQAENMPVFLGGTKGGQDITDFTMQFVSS

B1: DVD2-Ig: DVD-Ig as DVD1-Ig but with linkers ADAAP (light chain) and AKTTPP (heavy chain) (antibody)
VH: MQLSGLTSEDSAMYFCVRFPTGNDYYAMDYWGQGTSVTVSSAKTTPPQIQLVQSGPELKKPGETVKISCKASGYTFRNYGMNWVKQAPGKDLKRMAWINTYTGESTYADDFKGRFAFSLETSASTAYLQINNLKNEDTATYFCARGIYYYGSSYAMDYWGQGTSVTVSS
VL: PVEADDAATYYCQQNNEDPFTFGSGTKLEIKRADAAPNIQMTQTTSSLSASLGDRVTISCRASQDISNCLNWYQQKPDGTVKLLIYYTSRLHSGVPSRFSGSGSGTDYSLTISNLEQEDIATYFCQQGKTLPYAFGGGTKLEINR
Turning to B1, in the assay with hIL-1β [1], the “binding affinity to hIL-1β, fold higher than that of DVD1-Ig” value worked out at 3 fold; the “koff” value turned out to be 0.00095 s⁻¹; the association rate constant (kon) was 1.19e+06 M⁻¹ s⁻¹; the Kd was found to be 0.798 nM. In the assay with hIL-1β [1], the Stoichiometry is 1.8. Besides, in the assay with hIL-1α [2], the “koff” value stood at 0.000252 s⁻¹, the “kon” value turned out to be 73500 M⁻¹ s⁻¹ and binding was characterised by a dissociation constant (Kd) of 3.42 nM. Moreover, the “neutralizing activity to hIL-1β, fold higher than that of DVD1-Ig” value in the assay with hIL-1β [3] worked out at 3 fold. In the assay with hIL-1β [4], the “Response Unit, 1st antigen hIL-1β” value was determined as 159 Response Unit and the “Response Unit, 2nd antigen hIL-1β” value is recorded as “hIL-1β: 137 Response Unit”. In the assay with hIL-1β [4] (setting [7]), the “Stoichiometry hIL-1β:DVD-Ig” value is 1.3. In the assay with hIL-1α [5] (hIL-1α injected as 1st antigen), the “Stoichiometry hIL-1α:DVD-Ig” value is on record as 1.8. Besides, in the assay with hIL-1α [5], the “Response Unit, 1st antigen hIL-1α” value turned out to be 209 Response Unit and the “Response Unit, 2nd antigen hIL-1α” value is on record as “hIL-1α: 131 Response Unit”. Further, the “Stoichiometry hIL-1α:DVD-Ig” value with hIL-1α [5] (setting [8]) is listed as 1.2. In the assay with hIL-1α [6], the “neutralizing activity against hIL-1α, fold less than that of the chimeric antibodies” value is 3 fold and the IC50 is 2.9 nM.

B2: DVD1-Ig: DVD-Ig binding hIL-1α and hIL-1β; VH/VL of 13F5.G5 fused directly to N-terminus of 3D12.E3 VH/VL, no linker (antibody)
VH: MQLSGLTSEDSAMYFCVRFPTGNDYYAMDYWGQGTSVTVSSQIQLVQSGPELKKPGETVKISCKASGYTFRNYGMNWVKQAPGKDLKRMAWINTYTGESTYADDFKGRFAFSLETSASTAYLQINNLKNEDTATYFCARGIYYYGSSYAMDYWGQGTSVTVSS
VL: PVEADDAATYYCQQNNEDPFTFGSGTKLEIKRNIQMTQTTSSLSASLGDRVTISCRASQDISNCLNWYQQKPDGTVKLLIYYTSRLHSGVPSRFSGSGSGTDYSLTISNLEQEDIATYFCQQGKTLPYAFGGGTKLEINRR
As to B2, in the assay with hIL-1β [1], the “koff” value was found to be 0.00159 s⁻¹, the “kon” value was 609000 M⁻¹ s⁻¹, the Kd came to 2.6 nM and the Stoichiometry came out at 1.5. Besides, in the assay with hIL-1α [2], the “koff” value is 0.000105 s⁻¹, the “kon” value amounted to 37000 M⁻¹ s⁻¹ and the Kd is 2.83 nM. Moreover, the Stoichiometry with hIL-1α [2] (saturating binding conditions) is 1.8. In addition, the IC50 with hIL-1β [3] (antigen hIL-1β, read-out: Potency IC50) worked out at 3.1 nM. The “Stoichiometry hIL-1β:DVD-Ig” value in the assay with hIL-1β [4] (hIL-1β injected as 1st antigen) worked out at 1.5. In the assay with hIL-1β [4], the “Response Unit, 1st antigen hIL-1β” value stood at 141 Response Unit and the “Response Unit, 2nd antigen hIL-1β” value was “hIL-1β: 75 Response Unit”. The “Stoichiometry hIL-1β:DVD-Ig” value with hIL-1β [4] (setting [7]) was found to be 1.0. Further, in the assay with hIL-1α [5] (hIL-1α injected as 1st antigen), the “Stoichiometry hIL-1α:DVD-Ig” value stood at 2.3. For the same molecule, in the assay with hIL-1α [5], the “Response Unit, 1st antigen hIL-1α” value is on record as 190 Response Unit and the “Response Unit, 2nd antigen hIL-1α” value is “hIL-1α: 107 Response Unit”. For the same molecule, the “Stoichiometry hIL-1α:DVD-Ig” value with hIL-1α [5] (setting [8]) was determined as 1.1. In the assay with hIL-1α [6], the “neutralizing activity against hIL-1α, fold less than that of the chimeric antibodies” value came to 3 fold and the IC50 was 2.3 nM.

Usually koff stands for the rate constant with which the complex falls apart. The low end stands for slow dissociation, the high end for fast dissociation. Broadly, the kon is the rate constant with which the complex forms. A higher kon goes with fast association. As a reminder, the Kd is the concentration at which binding is half-saturated. A word on the IC50: it is the concentration that gives 50% inhibition.

The record behind these values is patent publication US8889130B2, “Treatment of osteoarthritis and pain” (Abbvie Inc., priority 2011, dated 2014).
